Values quoted from earlier work, collected in paper PMC5810417.
Read-outs that look alike come from different tables or passages of the source.

How the values were obtained:
Prdx6 (Homo sapiens) [1] = molecular target: Prdx6 (Homo sapiens) (UniProt P30041); assay: PLA2 activity inhibition
Prdx6 (Homo sapiens) [2] = molecular target: Prdx6 (Homo sapiens) (UniProt P30041)
Prdx6 (Homo sapiens) [3] = molecular target: Prdx6 (Homo sapiens) (UniProt P30041); remark: listed apart in the source
Prdx6 (Homo sapiens) [4] = molecular target: Prdx6 (Homo sapiens) (UniProt P30041); remark: listed apart in the source

## SP-A (from UniProt Q8IWL2)
Prdx6 (Homo sapiens) [1]
  Ki: 130 nM

## Prdx6 (from UniProt P30041)
Prdx6 (Homo sapiens) [2]
  Kd: < 20 nM

## p67phox (from UniProt P19878)
Prdx6 (Homo sapiens) [1]
  Ki: 65 nM

## πGST1-1A and C (from UniProt P09211)
Prdx6 (Homo sapiens) [3]
  Kd: 50 nM

## πGST1-1B and D (from UniProt P09211)
Prdx6 (Homo sapiens) [4]
  Kd: 100 nM
